Earlier results, collected in patent US20220023273A1, “METHODS FOR TREATING SYMPTOMS AND DISORDERS ASSOCIATED WITH LYSOSOMAL STORAGE DISEASES” (GENZYME CORPORATION, priority 2019, published 2022).

System: plasma GL-3
Settings: after 156 weeks; matched historical phase 3 trial patients treated with agalsidase beta; cited from earlier work

B1: agalsidase beta: semisynthetic enzyme agalsidase beta (alpha-galactosidase), enzyme replacement therapy for Fabry disease (protein, UniProt P06280 32-429, looked up)
Alpha-galactosidase A: LDNGLARTPTMGWLHWERFMCNLDCQEEPDSCISEKLFMEMAELMVSEGWKDAGYEYLCIDDCWMAPQRDSEGRLQADPQRFPHGIRQLANYVHSKGLKLGIYADVGNKTCAGFPGSFGYYDIDAQTFADWGVDLLKFDGCYCDSLENLADGYKHMSLALNRTGRSIVYSCEWPLYMWPFQKPNYTEIRQYCNHWRNFADIDDSWKSIKSILDWTSFNQERIVDVAGPGGWNDPDMLVIGNFGLSWNQQVTQMALWAIMAAPLFMSNDLRHISPQAKALLQDKDVIAINQDPLGKQGYQLRQGDNFEVWERPLSGLAWAVAMINRQEIGGPRSYTIAVASLGKGVACNPACFITQLLPVKRKLGFYEWTSRLRSHINPTGTVLLQLENTMQMSLKDLL
Plasma GL-3 levels: 4.44 µg/mL
